From patent US20050287132A1, “Biliverdin reductase fragments and variants, and methods of using biliverdin reductase and such fragments and variants” (University of Rochester, priority 1999, published 2005)

Columns and labels:
[1] = target: protein kinase C (a mixture containing equal amounts of isozymes α, β and γ) (Promega); assay: cell-based or functional assay
[2] = Biliverdin reductase catalytic activity of recombinant wild type and mutant hBVR (Example 2, FIG. 3); assay type: biochemical, human
Protocol: FIGS. 3A-C are graphs depicting the effects of mutation of Gly^17, Ser^149, and Lys^296 on BVR catalytic activity. Purified preparations of recombinant wild type and mutant BVR with substitution of Gly^17 (FIG. 3A), Ser^149 (FIG. 3B), or Lys^296 (FIG. 3C) with Ala were assessed for BVR activity at pH 6.5 using NADH as cofactor and at pH 8.7 with NADPH as cofactor. Values presented are in percent wild type activity for each pH. The specific activity of the wild type preparation was 1744 nmol bilirubin produced min^−1 mg^−1 at pH 6.5 and 1147 nmol bilirubin produced min^−1 mg^−1 at pH 8.7. Values presented are representative of 2-4 determinations.
GST-BVR fusion proteins were prepared as described in Example 1. Human kidney biliverdin reductase was purified to homogeneity as described by Maines et al., Arch. Biochem. Biophys. 300:320-326 (1993), which is hereby incorporated by reference. The purified reductase preparations were judged to be homogenous by SDS-PAGE. Protein concentration was determined by the method of Bradford, Anal. Biochem. 72:248-254 (1976), which is hereby incorporated by reference.
Activity was determined as previously described by Huang et al., J. Biol. Chem. 264:7844-7849 (1989), which is hereby incorporated by reference, using NADPH as the cofactor at pH 8.7 in 0.1 M […] or NADH at pH 6.5 in […]. The rate of activity was measured as the increase in 450 nm absorbance at 25° C. Specific activity is expressed in units/mg protein, where 1 unit catalyzes the formation of 1 nmol bilirubin/min.

biliverdin reductase [3] = assay: Phosphorylation state of hBVR, SDS-PAGE immunoblot with anti-phospho antibodies; assay type: biochemical, human; details: anti-phospho mix blot, corrected for protein loading
Protocol: (§1) Purified protein was subjected to 12.5% SDS-PAGE and the protein transferred to PVDF membrane. The membrane was subsequently treated as for Western blotting, using anti-phosphoserine, anti-phosphotyrosine or anti-phosphothreonine, at 2 μg/ml, or a mixture of all three antibodies as the primary antibody. The secondary antibody was goat anti-rabbit horseradish peroxidase at a 1:1000 dilution and detection was carried out using the ECL reagent kit (NEN Life Sciences) according to the manufacturer's instructions.

HeLa cells = assay: Nuclear translocation of hemagglutinin-tagged BVR constructs after 8-bromo-cGMP, immunofluorescence; assay type: cell-based, human; details: 500 μM 8-bromo-cGMP, 5 min (up to 60 min)
Protocol: HeLa cells were grown on glass cover slips in DMEM medium containing 10% FBS under an atmosphere of 5% CO2. Cells were transfected with different BVR constructs using Lipofectamine, as described by the manufacturer. Briefly, cells were treated with a mixture of 2 μg DNA and 20 μl Lipofectamine for 5 h followed by the addition of DMEM medium. After 48 h, cells were treated with 500 μM 8-bromo-cGMP for 5, 20 or 60 min, fixed with 4% paraformaldehyde for 10 min. Cells were then rinsed with phosphate-buffered saline, incubated with 5% goat serum to block nonspecific binding sites and then with monoclonal anti hemagglutinin primary antibody and FITC conjugated secondary antibody. Cells were visualized by direct fluorescence microscopy.

[4] = Biliverdin reductase activity of E. coli expressed hBVR wild type and mutants (Example 1); assay type: biochemical, human; details: for Activity (nmol bilirubin/min/mg) pH 6.7 + NADH: pH 6.7, NADH cofactor; for Activity (nmol bilirubin/min/mg) pH 6.7 + NADH / Activity (nmol bilirubin/min/mg) pH 8.7 + NADPH: 25°; for Activity (nmol bilirubin/min/mg) pH 8.7 + NADPH: pH 8.7, NADPH cofactor
Protocol: SalI linkers are underlined in each primer. The products were digested with SalI and cloned into the vector pGEX 4T-2. Orientation was determined by restriction analysis and confirmed by sequencing. The ligation places the BVR coding region in frame with the GST protein of the vector. GST-BVR fusion proteins were purified from bacterial clones containing the plasmid, and grown overnight using a glutathione-sepharose 4B column (Pharmacia). The reductase portion of the fusion protein was released by thrombin protease treatment.
Activity was determined as previously described (Kutty et al., J. Biol. Chem. 256:3956-3962 (1981); Huang et al., J. Biol. Chem. 264:7844-7849 (1989), which are hereby incorporated by reference). Activity was determined in a 1 ml assay volume that contained 0.1 M Tris/HCl, pH 8.7 NADPH (100 μM), and biliverdin (5 μM). Reductase activity was also measured using NADH (1 mM) as the cofactor; in this case 0.1 M potassium phosphate pH 6.75, was substituted for Tris/HCl. SDS/PAGE was performed by the method of Laemmli, Nature 227:680-685 (1970), which is hereby incorporated by reference. Western blot analysis was performed using anti-serum to human kidney biliverdin reductase as previously described (Maines et al., Arch. Biochem. Biophys. 300:320-326 (1993), which is hereby incorporated by reference). The relative amounts of immunoreactive protein were determined by scanning the blot using a laser densitometer and comparing the area under the peak for each mutant with the wild type. The rate of activity was measured as the increase in 450 nm absorbance at 25° C. Specific activity is expressed as nmol bilirubin/min/ mg protein.

biliverdin reductase [5] = target: T1, biliverdin reductase (Homo sapiens, UniProt P53004, A154S/E160D/G155D/G17A); assay: Phosphorylation state of hBVR, SDS-PAGE immunoblot with anti-phospho antibodies; assay type: biochemical; details: versus wild type
T1 construct: used to amplify the full-length cDNA by PCR as described in purification of cloned reductase; GST (N, cleaved yes); made in house; host or cells: E. coli
T1 sequence (P53004 1-296 G17A/A154S/G155D/E160D): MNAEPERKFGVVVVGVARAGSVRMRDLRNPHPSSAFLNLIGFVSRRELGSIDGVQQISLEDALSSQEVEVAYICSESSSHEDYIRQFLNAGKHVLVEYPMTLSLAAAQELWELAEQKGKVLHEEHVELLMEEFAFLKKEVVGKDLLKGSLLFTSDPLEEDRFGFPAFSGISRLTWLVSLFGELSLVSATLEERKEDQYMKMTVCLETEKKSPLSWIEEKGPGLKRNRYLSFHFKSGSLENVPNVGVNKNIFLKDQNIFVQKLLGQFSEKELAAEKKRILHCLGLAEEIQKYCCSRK
Protocol: as §1

[6] = target: protein kinase C (a mixture containing equal amounts of isozymes α, β and γ) (Promega)

Molecule: QKLCHQKK [BVR peptide Q288KLCHQKK295 (peptide 2)]
- Km of the PKC reaction for the substrate MBP, peptide 50 µM (control 0.165 mg/ml) [1]: 0.12 mg/mL
- Vmax of the PKC reaction with respect to the cofactor ATP, peptide 50 µM (control 3.81 pmol/min) [1]: 3.12 pmol/min
- Vmax of the PKC reaction with respect to the substrate MBP, peptide 50 µM (control 2.25 pmol/min) [1]: 1.82 pmol/min
- inhibition of PKC activity with MBP as substrate, peptide 50 µM [1]: > 75%

Molecule: RKRCLRRL [PKC inhibitor peptide RKRCLRRL]
- inhibition of PKC activity, peptide at the same concentration as BVR peptide 2 [1]: 90%

B1: Lys^296 mutant: hBVR with Lys^296→Ala at the C terminus within a substrate binding domain (protein, UniProt P53004 3-296, looked up, variant K296A)
Biliverdin reductase A: AEPERKFGVVVVGVGRAGSVRMRDLRNPHPSSAFLNLIGFVSRRELGSIDGVQQISLEDALSSQEVEVAYICSESSSHEDYIRQFLNAGKHVLVEYPMTLSLAAAQELWELAEQKGKVLHEEHVELLMEEFAFLKKEVVGKDLLKGSLLFTAGPLEEERFGFPAFSGISRLTWLVSLFGELSLVSATLEERKEDQYMKMTVCLETEKKSPLSWIEEKGPGLKRNRYLSFHFKSGSLENVPNVGVNKNIFLKDQNIFVQKLLGQFSEKELAAEKKRILHCLGLAEEIQKYCCSRA
- BVR catalytic activity versus wild type ([2]; pH 6.5, NADH): doubling of activity
- BVR catalytic activity versus wild type ([2]; pH 8.7, NADPH): doubling of activity
- autophosphorylation activity (biliverdin reductase [3]): essentially comparable to that of the wild type protein

B2: NLS mutant: hemagglutinin tagged hBVR with amino acids 222-227 changed from GLKRNR to VIGSTG (SEQ. ID. No. 25) (protein, UniProt P53004 3-296, looked up, variant G222V L223I K224G R225S N226T R227G)
Biliverdin reductase A: AEPERKFGVVVVGVGRAGSVRMRDLRNPHPSSAFLNLIGFVSRRELGSIDGVQQISLEDALSSQEVEVAYICSESSSHEDYIRQFLNAGKHVLVEYPMTLSLAAAQELWELAEQKGKVLHEEHVELLMEEFAFLKKEVVGKDLLKGSLLFTAGPLEEERFGFPAFSGISRLTWLVSLFGELSLVSATLEERKEDQYMKMTVCLETEKKSPLSWIEEKGPVIGSTGYLSFHFKSGSLENVPNVGVNKNIFLKDQNIFVQKLLGQFSEKELAAEKKRILHCLGLAEEIQKYCCSRK
modifications: hemagglutinin tag
- nuclear localization in response to 8-bromo-cGMP (HeLa cells): not detected

B3: Gly^17: hBVR SEQ. ID. No. 1 with Gly^17→Ala within the nucleotide binding domain (protein, listed as Homo sapiens)
chain: MNAEPERKFGVVVVGVARAGSVRMRDLRNPHPSSAFLNLIGFVSRRELGSIDGVQQISLEDALSSQEVEVAYICSESSSHEDYIRQFLNAGKHVLVEYPMTLSLAAAQELWELAEQKGKVLHEEHVELLMEEFAFLKKEVVGKDLLKGSLLFTSDPLEEDRFGFPAFSGISRLTWLVSLFGELSLVSATLEERKEDQYMKMTVCLETEKKSPLSWIEEKGPGLKRNRYLSFHFKSGSLENVPNVGVNKNIFLKDQNIFVQKLLGQFSEKELAAEKKRILHCLGLAEEIQKYCCSRK
- Activity (nmol bilirubin/min/mg) pH 6.7 + NADH [4]: 698 nmol bilirubin/min/mg
- reductase activity relative to the control (wild type) ([4]; pH 6.7 with NADH): 20-25%
- Activity (nmol bilirubin/min/mg) pH 8.7 + NADPH [4]: 0 nmol bilirubin/min/mg
- reductase activity relative to the control (wild type) ([4]; pH 8.7 with NADPH): inactive
- BVR catalytic activity versus wild type ([2]; pH 6.5, NADH): essentially inactive
- BVR catalytic activity versus wild type ([2]; pH 8.7, NADPH): essentially inactive
- reduction in phosphorylation (biliverdin reductase [5]; anti-phospho mix, laser densitometry): approximately 50%
- reduction of phosphoserine signal (biliverdin reductase [5]; anti-phosphoserine): approximately 50%
- reduction in phosphothreonine signal (biliverdin reductase [5]; anti-phosphothreonine): not evident
- reduction of phosphotyrosine signal (biliverdin reductase [5]; anti-phosphotyrosine): approximately 50%

B4: Ser^149: hBVR SEQ. ID. No. 1 with Ser^149→Ala within the kinase motif of the leucine zipper (protein, listed as Homo sapiens)
chain: MNAEPERKFGVVVVGVGRAGSVRMRDLRNPHPSSAFLNLIGFVSRRELGSIDGVQQISLEDALSSQEVEVAYICSESSSHEDYIRQFLNAGKHVLVEYPMTLSLAAAQELWELAEQKGKVLHEEHVELLMEEFAFLKKEVVGKDLLKGALLFTSDPLEEDRFGFPAFSGISRLTWLVSLFGELSLVSATLEERKEDQYMKMTVCLETEKKSPLSWIEEKGPGLKRNRYLSFHFKSGSLENVPNVGVNKNIFLKDQNIFVQKLLGQFSEKELAAEKKRILHCLGLAEEIQKYCCSRK
- Activity (nmol bilirubin/min/mg) pH 6.7 + NADH [4]: 0 nmol bilirubin/min/mg
- reductase activity relative to the control (wild type) ([4]; pH 6.7 with NADH): inactive
- Activity (nmol bilirubin/min/mg) pH 8.7 + NADPH [4]: 231 nmol bilirubin/min/mg
- reductase activity relative to the control (wild type) ([4]; pH 8.7 with NADPH, listed as Ser^149 mutant): minimal activity
- BVR catalytic activity versus wild type ([2]; pH 6.5, NADH): essentially inactive
- BVR catalytic activity versus wild type ([2]; pH 8.7, NADPH): essentially inactive
- autophosphorylation activity (biliverdin reductase [3]): essentially comparable to that of the wild type protein

B5: rat biliverdin reductase as used in the PKC activity assays (protein)
chain: AEPKRKFGVVVVGVGRAGSVRLRDLKDPRSAAFLNLIGFVSRRELGSLDEVRQISLEDALRSQEIDVAYICSESSSHEDYIRQFLQAGKHVLVEYPMTLSFAAAQELWELAAQKGRVLHEEHVELLMEEFEFLRREVLGKELLKGSLRFTASPLEEERFGFPAFSGISRLTWLVSLFGELSLISATLEERKEDQYMKMTVQLETQNKGLLSWIEEKGPGLKRNRYVNFQFTSGSLEEVPSVGVNKNIFLKDQDIFVQKLLDQVSAEDLAAEKKRIMHCLGLASDIQKLCHQKK
- Km of the PKC reaction for the substrate MBP, upon addition of BVR [6]: substrate Km increasing from 0.145 to 0.16 upon addition of BVR to the reaction
- PKC activity, incorporation of 32P into MBP, after 15 min preincubation of PKC with varying concentrations of BVR [6]: incorporation of ^32P into MBP was increased in a dose-dependent manner in the presence of BVR
- Vmax of the PKC reaction with respect to ATP, in the presence of 50 µM BVR [6]: increased from 3.3 to 4.9 and 1.7 to 2.9 pmol/min, respectively
- Vmax of the PKC reaction with respect to MBP, in the presence of 50 µM BVR [6]: increased from 3.3 to 4.9 and 1.7 to 2.9 pmol/min, respectively
